Consider seven molecules from patent publication US20210355194A1 (TWIST BIOSCIENCE, published 2021).

Numbering of substitutions follows the chain as printed.

B1: SARS-CoV-2 variant 1-32 (antibody, V domains shown)
VH: EVQLLESGGGLVQPGGSLRLSCAASGFTFSSYAMYWVRQAPGKGLEWVSAISGSGGSTFYADSVKGRFTISRDNSKNTLYLQMNSLRAEDTAVYYCTRPPYGDYGDYWGQGTLVTVSS
VL: QSALTQPASVSGSPGQSITISCTGTSSDVGGYNLVSWYQQHPGKAPKLMIYEGNKRPSGVSNRFSGSKSGNTASLTISGLQAEDEADYYCCSYAGSSTFPVVFGGGTKLTVL
B2: SARS-CoV-2 variant 1-4 (antibody, V domains shown)
VH: EVQLLESGGGLVQPGGSLRLSCAASGFTFSSQAMSWVRQAPGKGLEWVSAISGSGGGTYYADSVKGRFTISRDNSKNTLYLQMNSLRAEDTAVYYCAKDRRFGEFDPWGQGTLVTVSS
VL: QSALTQPASVSGSPGQSITISCTGTSSDVGTYNLVSWYQQHPGKAPKLMIYEGSQRPSGVSNRFSGSKSGNTASLTISGLQAEDEADYYCCSYAGSSSFVVFGGGTKLTVL
B3: SARS-CoV-2 variant 1-28 (antibody, V domains shown)
VH: EVQLLESGGGLVQPGGSLRLSCAASGFTFSSYGMSWVRQAPGKGLEWVSAISGSGGGTYYADSVKGRFTISRDNSKNTLYLQMNSLRAEDTAVYYCASSSSWQFDYWGQGTLVTVSS
VL: B2 VL with D28G, T31S, S98T, F99H, V100Y
B4: SARS-CoV-2 variant 1-31 (antibody, V domains shown)
VH: B1 VH with Y35N
VL: B2 VL with T31K, S97R, S98T, F99P
B5: SARS-CoV-2 variant 1-3 (antibody, V domains shown)
VH: B2 VH
VL: B2 VL with T25I, T31S, S54T, Q55K
B6: SARS-CoV-2 variant 1-30 (antibody, V domains shown)
VH: B1 VH with Y35T
VL: B2 VL with S27R, T31S, S54T, Q55K, S97R, S98T, F99P
B7: SARS-CoV-2 variant 1-5 (antibody, V domains shown)
VH: B2 VH
VL: B2 VL with D28G, T31S, G53A, Q55K, S97Y, S98T, V100A

One assay addresses T1, COVID S1 RBM Fc fusion (Antigen 2) (SARS-CoV-2, UniProt P0DTC2 437-508). As to the kind of experiment: phage ELISA.
For B1, the “ELISA fold over background” value amounted to 1.1 fold.
With B2, the “ELISA fold over background” value came out at 1.1 fold.
As to B3, the “ELISA fold over background” value came out at 1.2 fold.
Same read-out and setting: to B4 belongs 1.2 fold.
The same measure, in the same setting: to B5 belongs 1.5 fold; to B6, 1.4 fold; to B7, 1.4 fold.

The next assay concerns the target T2, S1 Fc fusion protein (SARS-CoV-2, UniProt P0DTC2 14-685). Description: phage ELISA. For orientation: ELISA stands for enzyme-linked immunosorbent assay.
In the case of B1, the “ELISA fold over background” value was 4 fold.
Same read-out and setting: the value for B2 was 0.9 fold; that for B3 was 1.1 fold; that for B4 was 15.7 fold.
The same measure, in the same setting: the value for B5 was 1.5 fold; that for B6 was 5.6 fold; that for B7 was 1.2 fold.

The next assay has as its target T1, COVID S1 RBM Fc fusion (Antigen 2). Description: phage ELISA. The source holds these as a separate data set.
For the molecule B1, the “ELISA fold over background” value is 1.1 fold.
Still for that read-out and setting: the value for B2 was 1.1 fold; that for B3 was 1.2 fold.
For the molecule B4, the “ELISA fold over background” value is 1.2 fold.
On the same count and under the same terms, the value for B5 was 1.5 fold; that for B6 was 1.4 fold.
Same read-out and setting: the value for B7 was 1.4 fold.

A further assay addresses T2, S1 Fc fusion protein. As to the kind of experiment: phage ELISA. The source holds these as a separate data set.
With B1, the “ELISA fold over background” value stood at 4 fold.
For the molecule B2, the “ELISA fold over background” value turned out to be 0.9 fold.
Still for that read-out and setting: to B3 belongs 1.1 fold; to B4, 15.7 fold.
Same read-out and setting: the value for B5 was 1.5 fold; that for B6 was 5.6 fold; that for B7 was 1.2 fold.
